B1: J-17 (antibody, human IgG4 S228P, kappa, V domains shown)
VH: QIQLVQSGPELKKPGETVKISCKASGYTFTTYGLSWVKQTPGKGLKWMGWINTYSGVPTYTDDFKGRFAFSLETSASTAYLQINNLKNEDTATYFCARPYDFDQVGFAYWGQGTLVTVSA
VL: SIVMTQTPKFLLVSAGDRVSITCKASQTVSSDVAWYQQKAGQSPKLLIYYASNRYTGVPDRFTGSGYGTDFTFTISTVQAEDLAVYFCQQDYSSPFTFGGGSKLEIKR
notes: Human IgG4 chimera of murine origin; also called J-17.h
B2: J-11 (antibody, human IgG4 S228P, kappa, V domains shown)
VH: QVQLQQSGAELMKPGASVKLSCKATGYILTGYWIEWVKQRPGHGLEWIGEILPGSGSTNYNENFKGKATFTADTSSNTAYMQLSSLTTEDSAIYYCARAVLGYFDYWGQGTTLTVSS
VL: DIVMTQSHKFMSTSVGDRVSITCKASQDVSTAVAWYQQKPGQSPKLLIYWASTRHTGVPDRFTGSGSGTDYTLTISSVQAEDLALYYCHQHYSTYTFGGGTKLEIKR
notes: Human IgG4 chimera of murine origin; also called J-11.h

Columns and labels:
[1] = molecular target: T1, human LILRB2 expressed on cells (human, UniProt Q8N423 22-597); assay: flow cytometry, human whole blood, monocytes
T1 construct: CHO-s cells over-expressing full-length human LILRB2, or primary human macrophages and dendritic cells; also called hLILRB2-CHO-s; hLILRB2+ CHO-s
T1 sequence (Q8N423 other isoform, or with tags, fused parts or gaps limits assumed): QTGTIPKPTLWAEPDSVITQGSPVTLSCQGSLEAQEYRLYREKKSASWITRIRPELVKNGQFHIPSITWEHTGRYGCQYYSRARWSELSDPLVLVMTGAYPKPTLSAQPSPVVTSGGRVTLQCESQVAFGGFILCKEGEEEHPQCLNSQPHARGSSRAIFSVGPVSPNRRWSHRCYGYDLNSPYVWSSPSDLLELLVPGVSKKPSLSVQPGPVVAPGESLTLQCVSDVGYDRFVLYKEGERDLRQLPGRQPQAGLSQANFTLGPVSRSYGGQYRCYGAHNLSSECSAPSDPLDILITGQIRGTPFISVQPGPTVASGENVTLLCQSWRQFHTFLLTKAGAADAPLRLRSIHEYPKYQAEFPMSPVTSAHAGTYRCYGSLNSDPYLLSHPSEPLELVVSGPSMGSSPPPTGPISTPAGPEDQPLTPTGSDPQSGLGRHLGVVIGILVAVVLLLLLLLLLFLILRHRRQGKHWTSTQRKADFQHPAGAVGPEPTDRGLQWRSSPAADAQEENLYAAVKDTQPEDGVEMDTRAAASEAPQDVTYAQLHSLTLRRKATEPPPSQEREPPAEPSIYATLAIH

[2] = molecular target: T2, Cyno Monocytes / Cyno Neutrophils (Macaca fascicularis); assay: flow cytometry, cyno whole blood, neutrophils
T2 construct: cell surface, primary blood cells; also called LILRB2+ populations in cyno whole blood

human LILRB3 = molecular target: T3, human LILRB3 (human, UniProt O75022 24-631); assay: flow cytometry, LILRB3 CHOs
T3 construct: Over-expressed on CHO-s cells; also called hLILRB3

[3] = molecular target: T1, human LILRB2 expressed on cells; assay: blocking of HLA-G tetramer on LILRB2 CHOs, flow cytometry, mAb 10 ug/mL
Procedure: (§1) In the secondary screen, 1×10⁵ CHO-s cells over-expressing human LILRB2 were plated in 96-well round-bottom tissue culture-treated plate and washed twice with 1×DPBS (Gibco) and incubated with 10 μg/mL primary antibody (anti-LILRB2 mAbs or control) prepared in 50 μL FACS buffer (1×DPBS containing 2% HI-FBS (Sigma)+0.05% Sodium Azide). After incubation with mAbs for 30 minutes at 4° C., cells were washed twice in FACS buffer and then resuspended in 50 μL of FACS buffer containing 5 μg/mL APC-conjugated HLA-A2 or HLA-G tetramer (Fred Hutch). Cells were incubated protected from light for 30-60 minutes at 4° C. After incubation with tetramer, cells were washed in FACS buffer and re-suspended in fix buffer (1.5% paraformaldehyde diluted in 1×DPBS). Samples were analyzed using the Celesta flow cytometer analyzer (BD Biosciences). Data represent percent tetramer blocked by mAbs relative to tetramer alone, calculated according to the following equation: […]

human LILRB1 = molecular target: T4, human LILRB1 (human, UniProt Q8NHL6 24-650); assay: flow cytometry, LILRB1 CHOs
T4 construct: Over-expressed on CHO-s cells; also called hLILRB1
T4 sequence (Q8NHL6 24-650 limits assumed): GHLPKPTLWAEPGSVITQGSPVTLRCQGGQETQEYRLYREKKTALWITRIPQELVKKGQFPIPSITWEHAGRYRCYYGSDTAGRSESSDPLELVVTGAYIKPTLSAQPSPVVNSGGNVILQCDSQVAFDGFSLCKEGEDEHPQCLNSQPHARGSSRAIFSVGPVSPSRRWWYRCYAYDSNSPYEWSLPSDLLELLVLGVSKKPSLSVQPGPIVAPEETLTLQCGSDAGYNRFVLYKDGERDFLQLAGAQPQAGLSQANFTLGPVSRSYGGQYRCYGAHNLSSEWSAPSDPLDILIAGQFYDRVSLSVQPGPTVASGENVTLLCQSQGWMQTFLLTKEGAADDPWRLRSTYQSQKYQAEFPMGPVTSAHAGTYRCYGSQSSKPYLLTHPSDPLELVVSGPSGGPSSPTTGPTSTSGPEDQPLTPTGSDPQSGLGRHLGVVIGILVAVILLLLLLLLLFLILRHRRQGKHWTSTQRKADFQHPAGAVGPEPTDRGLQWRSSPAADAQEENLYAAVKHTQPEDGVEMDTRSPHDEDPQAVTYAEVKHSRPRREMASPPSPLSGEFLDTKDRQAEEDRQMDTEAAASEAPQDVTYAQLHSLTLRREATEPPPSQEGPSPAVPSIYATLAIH

human LILRA5 = molecular target: T5, human LILRA5 (human, UniProt A6NI73 42-299); assay: flow cytometry, LILRA5 CHOs
T5 construct: Over-expressed on CHO-s cells; also called hLILRA5
T5 sequence (A6NI73 42-299 limits assumed): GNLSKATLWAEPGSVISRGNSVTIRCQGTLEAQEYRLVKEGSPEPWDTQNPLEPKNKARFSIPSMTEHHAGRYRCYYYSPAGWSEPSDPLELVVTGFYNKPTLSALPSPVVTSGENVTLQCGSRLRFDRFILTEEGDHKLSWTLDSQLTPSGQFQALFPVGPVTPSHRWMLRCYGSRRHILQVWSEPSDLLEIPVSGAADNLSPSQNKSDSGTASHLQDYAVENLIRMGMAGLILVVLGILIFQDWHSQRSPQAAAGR

[4] = molecular target: T1, human LILRB2 expressed on cells; assay: blocking of HLA-A2 tetramer on LILRB2 CHOs, flow cytometry, mAb 10 ug/mL
Procedure: as §1

human LILRA4 = molecular target: T6, human LILRA4 (human, UniProt P59901 24-499); assay: flow cytometry, LILRA4 CHOs
T6 construct: Over-expressed on CHO-s cells; also called hLILRA4
T6 sequence (P59901 other isoform, or with tags, fused parts or gaps limits assumed): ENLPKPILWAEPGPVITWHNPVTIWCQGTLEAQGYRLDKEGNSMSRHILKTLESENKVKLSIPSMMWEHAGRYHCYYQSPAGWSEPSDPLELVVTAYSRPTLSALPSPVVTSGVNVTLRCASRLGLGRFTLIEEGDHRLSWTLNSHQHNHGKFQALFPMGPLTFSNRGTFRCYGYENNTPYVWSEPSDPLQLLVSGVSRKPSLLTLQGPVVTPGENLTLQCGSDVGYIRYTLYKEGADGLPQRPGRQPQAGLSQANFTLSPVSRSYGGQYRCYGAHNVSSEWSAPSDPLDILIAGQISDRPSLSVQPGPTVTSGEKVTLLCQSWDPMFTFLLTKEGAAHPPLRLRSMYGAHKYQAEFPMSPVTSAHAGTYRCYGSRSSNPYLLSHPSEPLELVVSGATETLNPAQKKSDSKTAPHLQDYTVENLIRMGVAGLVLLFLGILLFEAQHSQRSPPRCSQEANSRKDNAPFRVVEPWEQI

[5] = molecular target: T1, human LILRB2 expressed on cells; assay: cell-based or functional assay
human LILRB4 = molecular target: T7, human LILRB4 (human, UniProt Q8NHJ6 22-448); assay: flow cytometry, LILRB4 CHOs
T7 construct: Over-expressed on CHO-s cells; also called hLILRB4

[6] = molecular target: T8, Rhesus Monocytes / Rhesus Neutrophils (Macaca mulatta); assay: flow cytometry, rhesus whole blood, neutrophils
T8 construct: cell surface, primary blood cells; also called LILRB2+ populations in rhesus whole blood

[7] = molecular target: T2, Cyno Monocytes / Cyno Neutrophils; assay: flow cytometry, cyno whole blood, monocytes
[8] = molecular target: T1, human LILRB2 expressed on cells; assay: flow cytometry, LILRB2 CHOs
human LILRB5 = molecular target: T9, human LILRB5 (human, UniProt O75023 24-590); assay: flow cytometry, LILRB5 CHOs
T9 construct: Over-expressed on CHO-s cells; also called hLILRB5
T9 sequence (O75023 24-590 P542R limits assumed): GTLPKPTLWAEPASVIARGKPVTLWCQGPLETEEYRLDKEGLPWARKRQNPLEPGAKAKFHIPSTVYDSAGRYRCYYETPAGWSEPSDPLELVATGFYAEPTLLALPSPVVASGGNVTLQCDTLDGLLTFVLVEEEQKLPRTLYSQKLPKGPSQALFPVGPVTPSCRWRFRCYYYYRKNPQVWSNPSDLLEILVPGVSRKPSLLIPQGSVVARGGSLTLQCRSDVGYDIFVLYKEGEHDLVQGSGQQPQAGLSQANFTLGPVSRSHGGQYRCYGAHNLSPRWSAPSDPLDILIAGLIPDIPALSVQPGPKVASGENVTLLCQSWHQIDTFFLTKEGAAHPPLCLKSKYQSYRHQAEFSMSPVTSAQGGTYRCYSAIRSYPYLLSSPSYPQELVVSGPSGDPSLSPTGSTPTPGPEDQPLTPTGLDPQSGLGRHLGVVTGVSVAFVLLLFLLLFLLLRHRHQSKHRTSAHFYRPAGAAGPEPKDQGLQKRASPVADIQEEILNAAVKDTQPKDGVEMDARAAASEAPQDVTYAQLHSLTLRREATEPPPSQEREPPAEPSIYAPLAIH

human LILRA6 = molecular target: T10, human LILRA6 (human, UniProt Q6PI73 24-481); assay: flow cytometry, LILRA6 CHOs
T10 construct: Over-expressed on CHO-s cells; also called hLILRA6
T10 sequence (Q6PI73 24-481 limits assumed): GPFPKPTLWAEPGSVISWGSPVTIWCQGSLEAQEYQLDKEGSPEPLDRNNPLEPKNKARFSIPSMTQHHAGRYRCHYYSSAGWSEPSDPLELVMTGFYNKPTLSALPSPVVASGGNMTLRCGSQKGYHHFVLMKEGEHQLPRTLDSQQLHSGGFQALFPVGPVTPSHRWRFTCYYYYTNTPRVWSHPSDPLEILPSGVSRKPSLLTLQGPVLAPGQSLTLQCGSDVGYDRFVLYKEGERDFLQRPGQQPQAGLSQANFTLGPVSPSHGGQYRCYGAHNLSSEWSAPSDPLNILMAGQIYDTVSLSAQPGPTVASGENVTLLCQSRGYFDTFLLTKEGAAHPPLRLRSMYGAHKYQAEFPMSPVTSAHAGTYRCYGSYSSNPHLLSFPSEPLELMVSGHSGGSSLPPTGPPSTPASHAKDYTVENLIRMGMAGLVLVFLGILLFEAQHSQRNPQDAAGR

human LILRA3 = molecular target: T11, human LILRA3 (human, UniProt Q8N6C8 24-439); assay: flow cytometry, LILRA3 CHOs
T11 construct: Over-expressed on CHO-s cells; also called hLILRA3
T11 sequence (Q8N6C8 24-439 limits assumed): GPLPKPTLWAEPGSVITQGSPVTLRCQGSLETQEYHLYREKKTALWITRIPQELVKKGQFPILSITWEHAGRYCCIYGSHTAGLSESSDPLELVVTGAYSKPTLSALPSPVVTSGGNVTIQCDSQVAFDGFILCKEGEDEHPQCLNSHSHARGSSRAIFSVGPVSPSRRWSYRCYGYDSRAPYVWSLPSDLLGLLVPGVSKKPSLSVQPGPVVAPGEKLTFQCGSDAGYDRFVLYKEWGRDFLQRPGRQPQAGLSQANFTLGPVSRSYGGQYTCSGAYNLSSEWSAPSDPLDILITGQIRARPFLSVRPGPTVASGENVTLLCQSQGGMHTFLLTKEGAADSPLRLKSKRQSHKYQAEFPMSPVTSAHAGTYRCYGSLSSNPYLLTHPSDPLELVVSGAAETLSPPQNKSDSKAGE

[9] = molecular target: T1, human LILRB2 expressed on cells; assay: flow cytometry, human whole blood, neutrophils
human LILRA2 = molecular target: T12, human LILRA2 (human, UniProt Q8N149 24-483); assay: flow cytometry, LILRA2 CHOs
T12 construct: Over-expressed on CHO-s cells; also called hLILRA2
T12 sequence (Q8N149 24-483 S135L limits assumed): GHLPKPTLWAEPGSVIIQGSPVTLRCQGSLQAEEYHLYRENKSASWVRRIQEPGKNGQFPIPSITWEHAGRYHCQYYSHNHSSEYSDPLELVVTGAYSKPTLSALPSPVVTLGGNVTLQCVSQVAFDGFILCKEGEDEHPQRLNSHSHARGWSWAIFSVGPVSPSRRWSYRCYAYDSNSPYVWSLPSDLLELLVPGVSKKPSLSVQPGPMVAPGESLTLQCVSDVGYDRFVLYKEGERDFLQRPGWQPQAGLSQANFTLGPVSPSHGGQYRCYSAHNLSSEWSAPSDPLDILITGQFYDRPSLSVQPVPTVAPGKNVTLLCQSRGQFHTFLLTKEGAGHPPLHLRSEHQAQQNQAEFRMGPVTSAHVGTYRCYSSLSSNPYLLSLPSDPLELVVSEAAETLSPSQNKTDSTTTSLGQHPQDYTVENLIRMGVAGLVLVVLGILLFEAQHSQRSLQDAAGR

human LILRB2-His = human LILRB2-His (human, UniProt Q8N423 22-460); assay: SPR, Sierra Sensors MASS-2; antibody captured on anti-human Fc, LILRB2-His 65 to 0.27 nM, 1:1 Langmuir fit
human LILRB2-His, sequence (Q8N423 other isoform, or with tags, fused parts or gaps): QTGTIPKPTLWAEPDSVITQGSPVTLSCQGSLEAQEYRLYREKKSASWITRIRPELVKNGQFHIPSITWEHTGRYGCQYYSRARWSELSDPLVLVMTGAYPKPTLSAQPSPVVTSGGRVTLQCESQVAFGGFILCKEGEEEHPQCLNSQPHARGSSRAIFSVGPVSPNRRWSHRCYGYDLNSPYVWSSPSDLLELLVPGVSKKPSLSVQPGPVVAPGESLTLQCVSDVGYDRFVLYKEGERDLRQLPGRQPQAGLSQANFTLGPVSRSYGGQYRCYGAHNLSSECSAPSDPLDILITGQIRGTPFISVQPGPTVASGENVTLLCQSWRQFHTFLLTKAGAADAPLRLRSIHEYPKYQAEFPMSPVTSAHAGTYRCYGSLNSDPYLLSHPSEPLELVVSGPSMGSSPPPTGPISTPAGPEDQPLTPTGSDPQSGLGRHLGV
Procedure: Using a Mass-2 (Sierra Sensors) high capacity amine chip preimmobilized with AffiniPure Goat Anti-Human IgG, Fcγ Fragment Specific antibody, humanized antibodies were captured on the anti-human surface and then binding to human LILRB2-His was measured by flowing six different concentrations from 65 to 0.27 nM of the analyte over the antibody surface. The anti-LILRB2 surface was removed (10 mM Glycine, pH 2.0) and recaptured between all concentrations or buffer only cycles. The data was analyzed using the Sierra Analyzer software (version 3.1.14). All curves were double subtracted and fit to a 1:1 Langmuir Fit.

[10] = molecular target: T8, Rhesus Monocytes / Rhesus Neutrophils; assay: flow cytometry, rhesus whole blood, monocytes
human LILRA1 = molecular target: T13, human LILRA1 (human, UniProt O75019 17-489); assay: flow cytometry, LILRA1 CHOs
T13 construct: Over-expressed on CHO-s cells; also called hLILRA1
T13 sequence (O75019 17-489 limits assumed): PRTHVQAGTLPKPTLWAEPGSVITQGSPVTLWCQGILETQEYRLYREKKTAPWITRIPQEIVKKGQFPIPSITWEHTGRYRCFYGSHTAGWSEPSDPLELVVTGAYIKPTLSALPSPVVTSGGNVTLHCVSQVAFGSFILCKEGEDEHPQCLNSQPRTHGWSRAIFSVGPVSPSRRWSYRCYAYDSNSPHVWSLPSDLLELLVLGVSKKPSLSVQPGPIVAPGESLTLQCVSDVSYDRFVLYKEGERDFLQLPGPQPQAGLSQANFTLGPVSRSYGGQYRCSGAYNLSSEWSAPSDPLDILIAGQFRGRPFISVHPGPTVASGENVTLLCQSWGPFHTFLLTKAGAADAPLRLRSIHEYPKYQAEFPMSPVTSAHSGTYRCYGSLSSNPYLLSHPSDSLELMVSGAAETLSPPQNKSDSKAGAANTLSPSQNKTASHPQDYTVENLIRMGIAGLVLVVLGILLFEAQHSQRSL

Binder | Human Monocytes binding (fold over iso) [1] | Cyno Neutrophils binding (fold over iso) [2] | binding (fold over iso) (human LILRB3) | binding result (human LILRB3) | HLA-G:LILRB2 CHOs blocking (% blocked) [3] | binding (fold over iso) (human LILRB1) | binding result (human LILRB1) | binding (fold over iso) (human LILRA5) | binding result (human LILRA5) | HLA-A2:LILRB2 CHOs blocking (% blocked) [4] | binding (fold over iso) (human LILRA4) | binding result (human LILRA4) | CCL2 production (fold over LPS alone) [5] | IL-6 production (fold over LPS alone) [5] | IL-10 production (fold over LPS alone) [5] | TNFa production (fold over LPS alone) [5] | binding (fold over iso) (human LILRB4) | binding result (human LILRB4) | Rhesus Neutrophils binding (fold over iso) [6] | Cyno Monocytes binding (fold over iso) [7] | further results
B1 | 11.3 fold over iso | 0.87 fold over iso | 0.99 fold over iso | no binding | 96.6 % blocked | 1.05 fold over iso | no binding | 0.82 fold over iso | no binding | 93.4 % blocked | -36.5 fold over iso | no binding | 1.85 fold over LPS alone | 2.57 fold over LPS alone | 0.89 fold over LPS alone | 8.12 fold over LPS alone | 1 fold over iso | no binding | 1.44 fold over iso | 0.92 fold over iso | binding (fold over iso) [8]: 3.68 fold over iso; binding (fold over iso) (human LILRB5): 1.03 fold over iso; binding result (human LILRB5): no binding; binding (fold over iso) (human LILRA6): 0.94 fold over iso; binding result (human LILRA6): no binding; binding (fold over iso) (human LILRA3): 1.35 fold over iso; binding result (human LILRA3): no binding; Human Neutrophils binding (fold over iso) [9]: 4.55 fold over iso; binding (fold over iso) (human LILRA2): -1.05 fold over iso; binding result (human LILRA2): no binding; Kd (human LILRB2-His): 2.85 nM; kon (human LILRB2-His): 1.56e+06 M⁻¹ s⁻¹; Rhesus Monocytes binding (fold over iso) [10]: 1.41 fold over iso
B2 | 8.54 fold over iso | 0.94 fold over iso | 1.09 fold over iso | no binding | 99.9 % blocked | 1.07 fold over iso | no binding | 1.34 fold over iso | no binding | 94.4 % blocked | -1.27 fold over iso | no binding | 0.96 fold over LPS alone | 3.06 fold over LPS alone | 0.81 fold over LPS alone | 7.61 fold over LPS alone | 1.03 fold over iso | no binding | 0.64 fold over iso | 0.71 fold over iso | binding (fold over iso) (human LILRA1): -1.63 fold over iso; binding result (human LILRA1): no binding; binding (fold over iso) [8]: 3.49 fold over iso; binding (fold over iso) (human LILRB5): 1.22 fold over iso; binding result (human LILRB5): no binding; binding (fold over iso) (human LILRA6): 1 fold over iso; binding result (human LILRA6): no binding; binding (fold over iso) (human LILRA3): 1.02 fold over iso; binding result (human LILRA3): no binding; Human Neutrophils binding (fold over iso) [9]: 2.89 fold over iso; binding (fold over iso) (human LILRA2): -2.52 fold over iso; binding result (human LILRA2): no binding; Kd (human LILRB2-His): 2.47 nM; koff (human LILRB2-His): 0.000913 s⁻¹; kon (human LILRB2-His): 370000 M⁻¹ s⁻¹; Rhesus Monocytes binding (fold over iso) [10]: 0.88 fold over iso

— US20200339690A1 (JOUNCE THERAPEUTICS, published 2020)
